Results: the supplement of paper PMC5998384

Assays:
[1] = test system: HeLa Kyoto; assay: melting temperature (median over replicates), in situ; higher = more thermally stable
[2] = test system: HeLa Kyoto; assay: solubility in G1/S (NP-40 vs SDS abundance) (log2 ratio); higher = more soluble; conditions: cell cycle stage: G1/S
[3] = test system: HeLa Kyoto; assay: solubility change mitosis vs G1/S (difference of NP-40 vs SDS log2 ratios) (log2 ratio difference); higher = more soluble in mitosis
[4] = test system: HeLa Kyoto; assay: thermal stability score vs G1/S (z-score of summed log2 fold changes over temperatures); higher = more thermally stable than in G1/S
[5] = cell cycle stage: early G1 (4.5 h after nocodazole release)
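Wherever melting temperature (median over replicates), in situ is given: HeLa Kyoto cells synchronized by double thymidine or nocodazole block, proteins quantified by TMT10plex mass spectrometry, three independent biological replicates.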
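Wherever solubility change mitosis vs G1/S (difference of NP-40 vs SDS log2 ratios) is given: synchronized HeLa Kyoto cells (double thymidine block for G1/S, nocodazole release for mitosis), protein amounts in NP-40 versus SDS lysates quantified by mass spectrometry, three biological replicates.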
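Wherever solubility in G1/S (NP-40 vs SDS abundance) is given: HeLa Kyoto cells arrested at G1/S by double thymidine block, proteins quantified by TMT10plex mass spectrometry in mild NP-40 versus SDS extracts, three biological replicates.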
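Wherever thermal stability score vs G1/S (z-score of summed log2 fold changes over temperatures) is given: synchronized HeLa Kyoto cells, proteins quantified by TMT10plex mass spectrometry, three biological replicates, mitosis taken 0.5 h after nocodazole release, G1/S directly after double thymidine block.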

Sequence of CBX1 (chain, as listed by the source): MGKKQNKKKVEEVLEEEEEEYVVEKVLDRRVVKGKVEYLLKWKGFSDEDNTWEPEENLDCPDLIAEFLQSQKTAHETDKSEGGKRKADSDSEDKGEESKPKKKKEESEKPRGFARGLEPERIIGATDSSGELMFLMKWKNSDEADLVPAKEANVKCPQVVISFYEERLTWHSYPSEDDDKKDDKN
Sequence of SIRT5 (chain, as listed by the source): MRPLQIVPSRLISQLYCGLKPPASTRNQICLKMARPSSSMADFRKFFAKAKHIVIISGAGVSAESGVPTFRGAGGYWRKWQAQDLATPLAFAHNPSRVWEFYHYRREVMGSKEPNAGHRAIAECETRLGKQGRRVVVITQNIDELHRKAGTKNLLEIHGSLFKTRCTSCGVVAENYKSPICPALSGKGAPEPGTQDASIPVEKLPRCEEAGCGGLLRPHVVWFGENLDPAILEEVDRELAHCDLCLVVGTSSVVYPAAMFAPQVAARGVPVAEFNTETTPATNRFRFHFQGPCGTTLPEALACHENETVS

Substance	melting temperature ([1]; cell cycle stage: G1/S) [°C]	melting temperature ([1]; cell cycle stage: mitosis) [°C]	solubility in G1/S (log2) [2]	solubility change mitosis (log2) [3]	thermal stability score [4, 5]	thermal stability score ([4]; cell cycle stage: mitosis)
MSVACVLKRKAVLWQDSFSPHLKHHPQEPANPNMPVVLTSGTGSQAQPQPAANQALAAGTHSSPVPGSIGVAGRSQDDAMVDYFFQRQHGEQLGGGGSGGGGYNNSKHRWPTGDNIHAEHQVRSMDELNHDFQALALEGRAMGEQLLPGKKFWETDESSKDGPKGIFLGDQWRDSAWGTSDHSVSQPIMVQRRPGQSFHVNSEVNSVLSPRSESGGLGVSMVEYVLSSSPGDSCLRKGGFGPRDADSDENDKGEKKNKGTFDGDKLGDLKEEGDVMDKTNGLPVQNGIDADVKDFSRTPGNCQNSANEVDLLGPNQNGSEGLAQLTSTNGAKPVEDFSNMESQSVPLDPMEHVGMEPLQFDYSGTQVPVDSAAATVGLFDYNSQQQLFQRPNALAVQQLTAAQQQQYALAAAHQPHIGLAPAAFVPNPYIISAAPPGTDPYTAGLAAAATLGPAVVPHQYYGVTPWGVYPASLFQQQAAAAAAATNSANQQTTPQAQQGQQQVLRGGASQRPLTPNQNQQGQQTDPLVAAAAVNSALAFGQGLAAGMPGYPVLAPAAYYDQTGALVVNAGARNGLGAPVRLVAPAPVIISSSAAQAAVAAAAASANGAAGGLAGTTNGPFRPLGTQQPQPQPQQQPNNNLASSSFYGNNSLNSNSQSSSLFSQGSAQPANTSLGFGSSSSLGATLGSALGGFGTAVANSNTGSGSRRDSLTGSSDLYKRTSSSLTPIGHSFYNGLSFSSSPGPVGMPLPSQGPGHSQTPPPSLSSHGSSSSLNLGGLTNGSGRYISAAPGAEAKYRSASSASSLFSPSSTLFSSSRLRYGMSDVMPSGRSRLLEDFRNNRYPNLQLREIAGHIMEFSQDQHGSRFIQLKLERATPAERQLVFNEILQAAYQLMVDVFGNYVIQKFFEFGSLEQKLALAERIRGHVLSLALQMYGCRVIQKALEFIPSDQQNEMVRELDGHVLKCVKDQNGNHVVQKCIECVQPQSLQFIIDAFKGQVFALSTHPYGCRVIQRILEHCLPDQTLPILEELHQHTEQLVQDQYGNYVIQHVLEHGRPEDKSKIVAEIRGNVLVLSQHKFASNVVEKCVTHASRTERAVLIDEVCTMNDGPHSALYTMMKDQYANYVVQKMIDVAEPGQRKIVMHKIRPHIATLRKYTYGKHILAKLEKYYMKNGVDLGPICGPPNGII [PUM1]	51.5	51	0.186	-0.102	-1.3	-1.48
CBX1	51.2	52.8	-0.629	0.55	2.04	1.13
MGALVIRGIRNFNLENRAEREISKMKPSVAPRHPSTNSLLREQISLYPEVKGEIARKDEKLLSFLKDVYVDSKDPVSSLQVKAAETCQEPKEFRLPKDHHFDMINIKSIPKGKISIVEALTLLNNHKLFPETWTAEKIMQEYQLEQKDVNSLLKYFVTFEVEIFPPEDKKAIRSK [NDUFAF4]	50.4	54.2	0.314	-0.0449	-2.2	-2.98
SIRT5	50.9	50.9	0.419	-0.233	-0.174	0.987
MAERQEEQRGSPPLRAEGKADAEVKLILYHWTHSFSSQKVRLVIAEKALKCEEHDVSLPLSEHNEPWFMRLNSTGEVPVLIHGENIICEATQIIDYLEQTFLDERTPRLMPDKESMYYPRVQHYRELLDSLPMDAYTHGCILHPELTVDSMIPAYATTRIRSQIGNTESELKKLAEENPDLQEAYIAKQKRLKSKLLDHDNVKYLKKILDELEKVLDQVETELQRRNEETPEEGQQPWLCGESFTLADVSLAVTLHRLKFLGFARRNWGNGKRPNLETYYERVLKRKTFNKVLGHVNNILISAVLPTAFRVAKKRAPKVLGTTLVVGLLAGVGYFAFMLFRKRLGSMILAFRPRPNYF [GDAP1]	54	52	-0.194	-0.1	1.45	1.45
MTLEAIRYSRGSLQILDQLLLPKQSRYEAVGSVHQAWEAIRAMKVRGAPAIALVGCLSLAVELQAGAGGPGLAALVAFVRDKLSFLVTARPTAVNMARAARDLADVAAREAEREGATEEAVRERVICCTEDMLEKDLRDNRSIGDLGARHLLERVAPSGGKVTVLTHCNTGALATAGYGTALGVIRSLHSLGRLEHAFCTETRPYNQGARLTAFELVYEQIPATLITDSMVAAAMAHRGVSAVVVGADRVVANGDTANKVGTYQLAIVAKHHGIPFYVAAPSSSCDLRLETGKEIIIEERPGQELTDVNGVRIAAPGIGVWNPAFDVTPHDLITGGIITELGVFAPEELRTALTTTISSRDGTLDGPQM [MRI1]	52.5	52.4	0.21	-0.154	-0.841	-0.966
MANRTVKDAHSIHGTNPQYLVEKIIRTRIYESKYWKEECFGLTAELVVDKAMELRFVGGVYGGNIKPTPFLCLTLKMLQIQPEKDIIVEFIKNEDFKYVRMLGALYMRLTGTAIDCYKYLEPLYNDYRKIKSQNRNGEFELMHVDEFIDELLHSERVCDIILPRLQKRYVLEEAEQLEPRVSALEEDMDDVESSEEEEEEDEKLERVPSPDHRRRSYRDLDKPRRSPTLRYRRSRSRSPRRRSRSPKRRSPSPRRERHRSKSPRRHRSRSRDRRHRSRSKSPGHHRSHRHRSHSKSPERSKKSHKKSRRGNE [PRPF38A]	49	48.6	-1.32	0.372	-0.0926	1.13
MAVAGAVSGEPLVHWCTQQLRKTFGLDVSEEIIQYVLSIESAEEIREYVTDLLQGNEGKKGQFIEELITKWQKNDQELISDPLQQCFKKDEILDGQKSGDHLKRGRKKGRNRQEVPAFTEPDTTAEVKTPFDLAKAQENSNSVKKKTKFVNLYTREGQDRLAVLLPGRHPCDCLGQKHKLINNCLICGRIVCEQEGSGPCLFCGTLVCTHEEQDILQRDSNKSQKLLKKLMSGVENSGKVDISTKDLLPHQELRIKSGLEKAIKHKDKLLEFDRTSIRRTQVIDDESDYFASDSNQWLSKLERETLQKREEELRELRHASRLSKKVTIDFAGRKILEEENSLAEYHSRLDETIQAIANGTLNQPLTKLDRSSEEPLGVLVNPNMYQSPPQWVDHTGAASQKKAFRSSGFGLEFNSFQHQLRIQDQEFQEGFDGGWCLSVHQPWASLLVRGIKRVEGRSWYTPHRGRLWIAATAKKPSPQEVSELQATYRLLRGKDVEFPNDYPSGCLLGCVDLIDCLSQKQFKEQFPDISQESDSPFVFICKNPQEMVVKFPIKGNPKIWKLDSKIHQGAKKGLMKQNKAV [TRIP4]	50.6	49.4	-0.111	-0.0219	1.04	0.759
MAATALLEAGLARVLFYPTLLYTLFRGKVPGRAHRDWYHRIDPTVLLGALPLRSLTRQLVQDENVRGVITMNEEYETRFLCNSSQEWKRLGVEQLRLSTVDMTGIPTLDNLQKGVQFALKYQSLGQCVYVHCKAGRSRSATMVAAYLIQVHKWSPEEAVRAIAKIRSYIHIRPGQLDVLKEFHKQITARATKDGTFVISKT [PTPMT1]	51.8	51.2	-0.268	-0.0676	-0.395	-0.764
MAEAMDLGKDPNGPTHSSTLFVRDDGSSMSFYVRPSPAKRRLSTLILHGGGTVCRVQEPGAVLLAQPGEALAEASGDFISTQYILDCVERNERLELEAYRLGPASAADTGSEAKPGALAEGAAEPEPQRHAGRIAFTDADDVAILTYVKENARSPSSVTGNALWKAMEKSSLTQHSWQSLKDRYLKHLRGQEHKYLLGDAPVSPSSQKLKRKAEEDPEAADSGEPQNKRTPDLPEEEYVKEEIQENEEAVKKMLVEATREFEEVVVDESPPDFEIHITMCDDDPPTPEEDSETQPDEEEEEEEEKVSQPEVGAAIKIIRQLMEKFNLDLSTVTQAFLKNSGELEATSAFLASGQRADGYPIWSRQDDIDLQKDDEDTREALVKKFGAQNVARRIEFRKK [TERF2IP]	49.8	52.4	0.503	0.0568	1.96	1.16
MAIKSIASRLRGSRRFLSGFVAGAVVGAAGAGLAALQFFRSQGAEGALTGKQPDGSAEKAVLEQFGFPLTGTEARCYTNHALSYDQAKRVPRWVLEHISKSKIMGDADRKHCKFKPDPNIPPTFSAFNEDYVGSGWSRGHMAPAGNNKFSSKAMAETFYLSNIVPQDFDNNSGYWNRIEMYCRELTERFEDVWVVSGPLTLPQTRGDGKKIVSYQVIGEDNVAVPSHLYKVILARRSSVSTEPLALGAFVVPNEAIGFQPQLTEFQVSLQDLEKLSGLVFFPHLDRTSDIRNICSVDTCKLLDFQEFTLYLSTRKIEGARSVLRLEKIMENLKNAEIEPDDYFMSRYEKKLEELKAKEQSGTQIRKPS [EXOG]	52.8	51.3	0.21	-0.0598	2.74	-1.52
MPLPVALQTRLAKRGILKHLEPEPEEEIIAEDYDDDPVDYEATRLEGLPPSWYKVFDPSCGLPYYWNADTDLVSWLSPHDPNSVVTKSAKKLRSSNADAEEKLDRSHDKSDRGHDKSDRSHEKLDRGHDKSDRGHDKSDRDRERGYDKVDRERERDRERDRDRGYDKADREEGKERRHHRREELAPYPKSKKAVSRKDEELDPMDPSSYSDAPRGTWSTGLPKRNEAKTGADTTAAGPLFQQRPYPSPGAVLRANAEASRTKQQD [PQBP1]	58.2	54.6	0.0148	0.599	-3.93	-4.26
MDKLKKVLSGQDTEDRSGLSEVVEASSLSWSTRIKGFIACFAIGILCSLLGTVLLWVPRKGLHLFAVFYTFGNIASIGSTIFLMGPVKQLKRMFEPTRLIATIMVLLCFALTLCSAFWWHNKGLALIFCILQSLALTWYSLSFIPFARDAVKKCFAVCLA [SFT2D2]	57.4	61.1	0.0285	0.0654	-0.835	-0.774
MGAVWSALLVGGGLAGALFVWLLRGGPGDTGKDGDAEQEKDAPLGGAAIPGGHQSGSSGLSPGPSGQELVTKPEHLQESNGHLISKTKDLGKLQAASWRLQNPSREVCDNSREHVPSGQFPDTEAPATSETSNSRSYSEVSRNESLESPMGEWGFQKGQEISAKAATCFAEKLPSSNLLKNRAKEEMSLSDLNSQDRVDHEEWEMVPRHSSWGDVGVGGSLKAPVLNLNQGMDNGRSTLVEARGQQVHGKMERVAVMPAGSQQVSVRFQVHYVTSTDVQFIAVTGDHECLGRWNTYIPLHYNKDGFWSHSIFLPADTVVEWKFVLVENGGVTRWEECSNRFLETGHEDKVVHAWWGIH [STBD1]	50.7	50.3	-0.336	-0.0441	0.314	-0.125
